The NTF2 design screens of Basanta et al. (2020)

Test: protease stability score; higher = more stable; yeast display proteolysis, trypsin and chymotrypsin;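 note: log10 excess protease needed over predicted unfolded state with 0 meaning unfolded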

| Sequence | protease stability score |
| --- | --- |
| DHDQRRQAKEMVHAMTKGDEDRLRELLDENAKADVGDSKVHGRTQFLRELRTTMEQSQLRLDSFDVKVKDGRVRMRFSFVEDHNGRPNHKNAELQLRLDNGKVQEVRQRDDG | 0.539 |
| DEQEQAEELAKKMMENMETGDFDKRANQADPDARMEIGDKDVRGRETIASHQRELSDHIDHANATVLEVRVSNGDVEVRMQFRVQHNGRSRQEERIINATISGDKMRIKEFTQS | -0.116 |
| DEKKAKELAETMFKYIQNGDEEKAQKYVDDNVEYKYIDKEYEGKDVVKEVVDKIKKLGVEVKLKRAEVKGDRVTADFEYKHGDNTVRTTVEVQYEGDRVKKARVELTDEARKVIDKG | 0.352 |
| DSERRQREAENFFKNLQTGNKHEFEKLFPPDVRAQVGEKEIHGREEAQKWWKNIHDRADHMQIDHFDVDGNKITFDMRMNVDGHEIRMRLTIRLENGQYRSLTAEVRDEDAERRLKS | 0.672 |
| DTTTEIQRLVHDFVRKIKTGDPKEFERLVDEDARVRVGDKTVSGREEAVSHMVETAQRADTMDVNITSVSIHNGHAKVEFHLKYDHNGKDVEQTIIFVMVKRNGHFRLKEMVQK | 1.26 |
| DSQKERDLVEHFLRNFRTGDPDKLKTMADPNAHMRVGDKNVHGREDLSRWVQEVRDRADHIDIDTFSVSNGRATATIVMRVDGKEVRFEVVITMENGKIKSMEQQDR | 0.726 |
| DSEAHELADTIMHALKHNNPDQLKEQFDPNVRVDIGNNRYHGREQFATEVIRTLREWRVEYKSFDQRNSGDKVDLRIRFVVNVNGRPHRYSVTVHLNFKDGRVKKMKVEMDPDQERKQTQ | 0.914 |
| DERDHVRRLLNTWLKVVKRNDEDQARRLADPNARVEVGDKTYSGDEKVVELMHKIRQQYDSIDIHLHTVKREGDFIHAKAKMDAKVNGKQEDVTMFIWFKQHNGEWHILQVIIK | 0.723 |
| DEKEAEHVSRLVRENDFQTLRDQADKDARVRIGDREVHGRERLRSQLHKLERRIDSLEVHRVNNHPNHFHVDVVITVNGQKVTFRLNIHVHNGRIKSIEIEFTDEDQKRNMNEVFS | -0.081 |
| EEEQQKVLEELFRVLQEGDEKRAIKLADPNAKFNVGDKQYNGMEEYARSVATEIRNIRVEIETMDARVQGDHVQVNIVVNYKINGQPFRMTIKVRANVHNGQVHELNMHVDEDQQRKLKT | 0.014 |
| DQERNEQAKKLLDIINTGDEHKVKDMFDPNASIKVGDHTLHGREEIAKHYRREKDESRYQVDRVDFKAHGEKVRVSVKYTFRHNGKPLTATVEYNFRMHNGRIKDLSVRFDEQRQRDRDS | 0.117 |
| DEEDVDRFAKTFAEIFQSGNPENIREMMDPNARLHVGERTYHGRETIVQYLKRLRRDVDSIHLVSITNHGESIVIKVSLDVNGQHVVVHINVHFQNGRIKSMSMTYRDEEDRKKYEG | 2 |
| DEKEQEVLDRFMRALRTGNPDDADKNVDKDVNVRYGDRTIKGRESFHEEIRREHQEIRLDYRSVNNQVHNGQANVDVDAIWNVNGRPHRVKVHIRAQIHDGRIKHQRFRMDPEEKKRVDS | 0.054 |
| DEDKRKLVEDLIEAEERGDNERIKELADKDAEYIYGDKTVEGREEHAKEVKKKHDQQRVKITSMRINAHGDKIQVSIEYTVEDNGQPRRARVHIKFVIHNGRFQSMHIQDHR | -0.253 |
| DTEDDHEFARKYVEVLESGDPKQWREMFDEDAKMRIGEKTFRGRDQIATWYERYRRQADHVEVKHVETRGEQFQFDFQVHVNGKHARYTLNIRVHNGKLVEVKFDPDQKKTMDK | 1.75 |
| EDEMRKLAHKVMTAHQTGDPDRIARLMDPNVQVKVGDKTIHGKHQLKRKLTKDLKEMRVHIKSVKFSVQGDKVEVRANLVSRHNGQPHESTVDVRITARGDKLKHLNNQETQ | -0.263 |
| DEEEQHKVAKKLNEAFQQGDPDRLKQLVDKDARAEVGDTTYHGSQDIREAMQHIKDRVDKIEVKSFSVRNGKVTLSINMEVNGRKVILTVEARVDNGHVEYMRIKYTNEEDREVMDQ | 0.95 |
| DEEERRRLAKRVIDAMNTGDPDQVVEQIDPNARVEIGDKVYHGRDKAKKAAEERKRQADHVKLKSLEVHGNKVHARLIFNRNGENRTVLLRIKVSNGKALEIRFDHQ | 0.552 |
| DEKALEFIRKFEEVMKKGDHDTLKEMMDPNARFQYGDKTVHGREHAADWAKRVRDQMRVRIISVKYTARGNKATIQVRNQVNFNGRPLHDHFEVSFDMHNGKIKHASRTLSEEQRQRLEQ | 0.062 |
| DDQKKKELMQKMVEAYLSGHHEEVEKLGKDDGKVEAGDRKYEGSEQARKAAKQFKTYGVELRITDMQQDGDRLDVKAEAHMGGVTWEFTATVTADGGKVDKIQIDASDDAKKAIKDG | 0.725 |
| DQENLELMNRLLEAISSNDESKFRRLVDPNVRVVIGDEQYHGRETLQKLLRDHNEHSRNDEHIHRVELHNGRVNMDVTREVDHNGRPQTDKFEIVATANNGKAVRMRFERTS | -0.164 |
| DSEEEKTISEQLRTNNPDDAEKLVDENARIVVGDKVIDGRKDAHRFFKRLTEQIDHLQVDSLTVKNGRFSLDFRFNVNGRDLRMVMKVVVDNGKIQYMQLDARDHDIQEHMRDALR | 0.967 |
| DHEAEKRWTKLQEAIKYNNPQEAKHQMDPNARVRVGDKEFHGMDDFAKYQLDHQRKIEVDRKVKKVDVKNGSVKVVQDVENNNNGTPSRHVMDLRVEVHNGHIRNVRAETDK | -0.295 |
| DERALDVARQLVEALNTGDPETANNLLDKNVHIRVGDKRIHGRKQHSRTVDREKKEIRRHLEKVTNKSKGDKADVDIQFQQTHNGRPTSNQMKMIVEARNGKVKRMSVREHG | -0.469 |
| DEEVKSVAEQLMDVLQKGDPKQMSRLADKDVKINVGDKQYDGSEQLEKAVEDWKDEMRFQIEHVSISARGDKANVDFHVEFSFNGKPHSREVKVYIKVHNGRIKYLEYRVDPNEERKIKK | -0.267 |
